{"source": "patent US20140105926A1", "about": "(GlaxoSmithKline, published 2014)", "binders": {"B1": {"name": "purified LVL317 PE-PilA fusion protein (other)", "chain": "QIQKAEQNDVKLAPPTDVRSGYIRLVKNVNYYIDSESIWVDNQEPQIVHFDAVVNLDKGLYVYPEPKRYARSVRQYKILNCANYHLTQVRTDFYDEFWGQGLRAAPKKQKKHTLSLTPDTTLYNAAQIICANYGEAFSVDKKGGTKKAAVSELLQASAPYKADVELCVYSTNETTNCTGGKNGIAADITTAKGYVKSVTTSNGAITVKGDGTLANMEYILQATGNAATGVTWTTTCKGTDASLFPANFCGSVTQ", "notes": "also called PE-PilA fusion non His-tagged protein"}}, "biological_target": "T1, Vitronectin from human plasma (SIGMA-ALDRICH) (human, UniProt P04004 20-478)", "T1 construct": "mature; Bought protein from human plasma. 'mature' is inferred from the plasma origin", "T1 sequence (P04004 20-478)": "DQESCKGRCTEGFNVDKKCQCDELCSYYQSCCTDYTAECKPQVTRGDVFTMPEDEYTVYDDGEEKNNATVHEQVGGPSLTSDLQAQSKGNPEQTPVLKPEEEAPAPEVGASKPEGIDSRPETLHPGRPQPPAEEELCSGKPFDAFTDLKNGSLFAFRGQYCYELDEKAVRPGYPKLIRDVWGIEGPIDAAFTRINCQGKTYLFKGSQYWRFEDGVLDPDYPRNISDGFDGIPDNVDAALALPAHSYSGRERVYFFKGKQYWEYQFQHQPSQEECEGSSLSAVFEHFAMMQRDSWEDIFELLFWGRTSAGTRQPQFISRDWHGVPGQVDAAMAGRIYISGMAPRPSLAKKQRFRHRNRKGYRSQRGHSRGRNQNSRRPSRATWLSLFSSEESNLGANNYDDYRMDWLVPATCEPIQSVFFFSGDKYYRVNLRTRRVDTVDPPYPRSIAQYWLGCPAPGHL", "assay": "ELISA: plate coated with fusion protein (10 ug/ml), human plasma vitronectin titrated from 10 ug/ml, detected with peroxidase sheep anti-human vitronectin"}
{"binder": "B1", "values": [{"measurement": "binding result", "result": "binds"}]}
